Data: patent publication US20200283478A1 (Genentech, published 2020)
Bridge positions count the residues as written; N and C are the ends. Square brackets hold non-standard residues; d marks the D form. Primed or numbered codes have the meaning given here. hArg = N=C(N)NCCCC[C@H](N)C(=O)O; Hyp′ = 3-hydroxyproline

Columns and labels:
[1] = target: T1, PCSK9Δhelix (human, Chemically biotinylated in the phage ELISAs; the site is not given.); test: SPR
T1 construct: construct M1-Q692 with engineered TEV site, cleaved by TEV; also called His-PCSK9Δhelix; open groove PCSK9Δhelix
T1 sequence (prodomain, as listed by the source mutant limits assumed, chain 1 of 2): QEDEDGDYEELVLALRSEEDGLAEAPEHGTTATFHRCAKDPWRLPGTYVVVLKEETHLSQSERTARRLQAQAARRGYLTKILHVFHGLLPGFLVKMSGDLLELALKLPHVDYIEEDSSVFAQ
T1 sequence (chain, as listed by the source mutant limits assumed, chain 2 of 2): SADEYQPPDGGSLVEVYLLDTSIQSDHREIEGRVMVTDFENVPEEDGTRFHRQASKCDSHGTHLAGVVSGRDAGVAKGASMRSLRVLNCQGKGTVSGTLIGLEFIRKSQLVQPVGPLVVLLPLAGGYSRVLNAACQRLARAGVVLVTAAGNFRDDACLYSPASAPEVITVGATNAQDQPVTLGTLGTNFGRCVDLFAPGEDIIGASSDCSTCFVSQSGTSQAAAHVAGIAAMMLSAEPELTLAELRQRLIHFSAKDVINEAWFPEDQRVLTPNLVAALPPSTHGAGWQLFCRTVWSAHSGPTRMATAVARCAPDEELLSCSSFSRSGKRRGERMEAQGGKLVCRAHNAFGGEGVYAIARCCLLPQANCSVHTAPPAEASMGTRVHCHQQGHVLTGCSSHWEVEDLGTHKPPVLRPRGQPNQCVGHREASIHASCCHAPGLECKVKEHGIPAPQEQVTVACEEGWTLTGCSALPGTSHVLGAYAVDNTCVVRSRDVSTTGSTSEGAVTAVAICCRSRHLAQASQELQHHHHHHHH

[2] = target: T1, PCSK9Δhelix; test: Ab20 TR-FRET competition and SPR
[3] = target: T2, proprotein convertase subtilisin/kexin type 9 (PCSK9) (human, UniProt Q8NBP7 31-692); test: TR-FRET competition (Table 11)
T2 construct: His-tagged full-length PCSK9 in TR-FRET and SPR, biotinylated in phage ELISA; secreted protein is autoprocessed (prodomain plus catalytic/CRD chain starting at S153); also called rec.PCSK9; His-PCSK9
T2 sequence (Q8NBP7 other isoform, or with tags, fused parts or gaps limits assumed): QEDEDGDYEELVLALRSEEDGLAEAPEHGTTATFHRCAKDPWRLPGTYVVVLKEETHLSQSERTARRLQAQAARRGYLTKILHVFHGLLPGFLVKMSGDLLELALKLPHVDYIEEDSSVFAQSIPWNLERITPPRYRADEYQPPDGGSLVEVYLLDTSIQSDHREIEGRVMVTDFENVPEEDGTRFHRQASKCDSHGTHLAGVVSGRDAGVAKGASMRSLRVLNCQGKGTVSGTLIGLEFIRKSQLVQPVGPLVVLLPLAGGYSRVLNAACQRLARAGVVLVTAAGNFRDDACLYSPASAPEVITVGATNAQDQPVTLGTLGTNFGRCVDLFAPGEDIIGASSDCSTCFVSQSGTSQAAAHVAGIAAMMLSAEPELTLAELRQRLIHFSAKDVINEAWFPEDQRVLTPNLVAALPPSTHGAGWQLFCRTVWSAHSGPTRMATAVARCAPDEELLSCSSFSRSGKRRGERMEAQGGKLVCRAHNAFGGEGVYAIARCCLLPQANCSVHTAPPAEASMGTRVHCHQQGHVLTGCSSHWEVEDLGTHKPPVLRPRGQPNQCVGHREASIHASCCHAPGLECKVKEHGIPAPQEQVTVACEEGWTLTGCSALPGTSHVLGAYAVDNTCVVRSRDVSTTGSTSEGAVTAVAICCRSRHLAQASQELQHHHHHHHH

[4] = target: T3, PCSK9Δhelix (human, UniProt Q8NBP7 31-152; Q8NBP7 168-692); test: SPR, Method 2 (Biacore T100, NTA capture, single cycle kinetics)
T3 construct: Made by TEV cleavage of human PCSK9 M1-Q692 with an engineered TEV site; The new N-terminus of the catalytic domain is S-A168; also called His-PCSK9Δhelix; PCSK9 lacking the P' helix
T3 sequence (Q8NBP7 31-152, stated change not applied, chain 1 of 2): as the sequence (prodomain, as listed by the source mutant limits assumed, chain 1 of 2) above
T3 sequence (Q8NBP7 other isoform, or with tags, fused parts or gaps mutant, chain 2 of 2): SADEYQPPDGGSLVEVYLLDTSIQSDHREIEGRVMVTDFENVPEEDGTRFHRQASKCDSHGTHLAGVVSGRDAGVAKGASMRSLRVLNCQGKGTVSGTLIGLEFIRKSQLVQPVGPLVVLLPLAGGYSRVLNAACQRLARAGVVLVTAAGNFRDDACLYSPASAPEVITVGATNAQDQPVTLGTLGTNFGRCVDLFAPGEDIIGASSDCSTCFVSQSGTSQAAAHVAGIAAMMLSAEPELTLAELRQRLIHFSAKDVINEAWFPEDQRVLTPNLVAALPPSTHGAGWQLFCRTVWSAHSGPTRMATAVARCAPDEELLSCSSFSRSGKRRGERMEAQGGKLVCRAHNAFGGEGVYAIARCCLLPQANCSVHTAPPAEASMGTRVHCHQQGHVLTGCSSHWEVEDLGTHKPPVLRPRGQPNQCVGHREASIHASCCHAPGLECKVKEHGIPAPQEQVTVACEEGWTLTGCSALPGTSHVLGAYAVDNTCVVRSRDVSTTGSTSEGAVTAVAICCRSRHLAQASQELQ

[5] = target: T4, PCSK9 (proprotein convertase subtilisin/kexin type 9), His-tagged, full-length (human, UniProt Q8NBP7 31-692); test: as above
T4 construct: Captured by the His tag (SPR Methods 1 and 2), amine-coupled (Method 3), or His-tagged in TR-FRET; also called His-PCSK9
T4 sequence (Q8NBP7 31-692 limits assumed): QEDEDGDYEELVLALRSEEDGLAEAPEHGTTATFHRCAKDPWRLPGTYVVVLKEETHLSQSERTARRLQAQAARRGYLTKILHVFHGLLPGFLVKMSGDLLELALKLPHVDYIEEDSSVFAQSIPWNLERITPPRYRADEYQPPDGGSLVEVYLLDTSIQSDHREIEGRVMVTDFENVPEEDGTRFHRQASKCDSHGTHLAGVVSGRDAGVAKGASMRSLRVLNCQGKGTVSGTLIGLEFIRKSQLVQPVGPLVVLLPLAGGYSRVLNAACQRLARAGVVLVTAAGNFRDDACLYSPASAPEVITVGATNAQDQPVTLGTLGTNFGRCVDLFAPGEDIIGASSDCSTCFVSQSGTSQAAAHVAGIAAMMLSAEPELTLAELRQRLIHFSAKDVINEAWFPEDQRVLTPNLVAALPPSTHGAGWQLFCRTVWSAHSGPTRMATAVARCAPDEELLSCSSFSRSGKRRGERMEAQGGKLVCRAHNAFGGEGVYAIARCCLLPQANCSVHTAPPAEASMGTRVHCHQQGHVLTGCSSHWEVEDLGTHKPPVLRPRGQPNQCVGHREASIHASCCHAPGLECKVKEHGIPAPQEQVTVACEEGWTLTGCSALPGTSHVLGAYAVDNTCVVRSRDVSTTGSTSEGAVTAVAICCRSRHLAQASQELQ

[6] = target: T4, PCSK9 (proprotein convertase …); test: TR-FRET competition; competitor EGF(A)-Fc binding to His-PCSK9
[7] = target: T3, PCSK9Δhelix; test: TR-FRET competition; competitor Ab20 binding to His-PCSK9Δhelix
[8] = target: T5, PCSK9Δhelix (human PCSK9 lacking the P' helix, His-tagged) (human, UniProt Q8NBP7 31-152; Q8NBP7 168-692); test: TR-FRET competition; His-PCSK9Δhelix with Ab20 as competitor ligand
T5 construct: Construct M1-Q692 with an engineered TEV site (Y166 and R167 deleted, ENLYFQS inserted between R165 and A168); also called His-PCSK9Δhelix; C-terminal (His)8-tagged PCSK9Δhelix
T5 sequence (Q8NBP7 31-152, stated change not applied, chain 1 of 2): as the sequence (prodomain, as listed by the source mutant limits assumed, chain 1 of 2) above
T5 sequence (Q8NBP7 other isoform, or with tags, fused parts or gaps mutant, chain 2 of 2): as the sequence (chain, as listed by the source mutant limits assumed, chain 2 of 2) above

[9] = target: T6, His-tagged, full-length human PCSK9 (proprotein convertase subtilisin/kexin type 9) (human, UniProt A8T644 31-152; Q8NBP7 153-692); test: TR-FRET competition; His-PCSK9 with EGF(A)-Fc as competitor ligand
T6 construct: also called His-PCSK9; C-terminal (His)8-tagged PCSK9
T6 sequence (A8T644 31-152, chain 1 of 2): as the sequence (prodomain, as listed by the source mutant limits assumed, chain 1 of 2) above
T6 sequence (A8T644 other isoform, or with tags, fused parts or gaps, chain 2 of 2): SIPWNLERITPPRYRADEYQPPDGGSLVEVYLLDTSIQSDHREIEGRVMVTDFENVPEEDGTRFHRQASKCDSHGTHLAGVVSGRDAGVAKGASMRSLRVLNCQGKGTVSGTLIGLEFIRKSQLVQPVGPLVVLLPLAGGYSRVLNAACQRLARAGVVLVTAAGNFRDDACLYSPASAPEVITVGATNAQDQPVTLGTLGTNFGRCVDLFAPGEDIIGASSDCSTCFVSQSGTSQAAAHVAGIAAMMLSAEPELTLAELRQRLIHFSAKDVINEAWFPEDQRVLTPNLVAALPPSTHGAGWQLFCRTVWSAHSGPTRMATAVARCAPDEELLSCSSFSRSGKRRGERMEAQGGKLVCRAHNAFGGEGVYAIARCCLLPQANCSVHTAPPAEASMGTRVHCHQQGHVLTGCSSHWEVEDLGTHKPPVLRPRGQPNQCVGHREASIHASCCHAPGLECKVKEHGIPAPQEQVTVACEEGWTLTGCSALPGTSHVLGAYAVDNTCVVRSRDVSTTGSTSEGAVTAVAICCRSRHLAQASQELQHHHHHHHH

[10] = target: T2, proprotein convertase subtilisin/kexin …; test: SPR
[11] = target: T1, PCSK9Δhelix; test: phage competition ELISA against phage-displayed Pep2-8 (Φpep2-8)
[12] = target: T1, PCSK9Δhelix; test: phage competition ELISA against phage-displayed K9gvpep4 (ΦK9gvpep4)
[13] = target: T2, proprotein convertase subtilisin/kexin …; test: cell-based or functional assay

## Ac-WNLV[hArg]IGLLR-NH2 [Compound 192]
[1]
  fold improvement of binding affinity by homo-arginine substitution (against Compound 53): 14 fold

## Ac-WNLVRIGLLR-NH2 [Compound 53]
[2]
  fold reduction of binding affinity on elimination of Pro4: 10 fold

B1: Compound 227 (peptide)
peptide: Ac-ESFPGWNLV[hArg]IGLLR-NH2
SMILES: CC[C@H](C)[C@H](NC(=O)[C@H](CCCCNC(=N)N)NC(=O)[C@@H](NC(=O)[C@H](CC(C)C)NC(=O)[C@H](CC(N)=O)NC(=O)[C@H](Cc1c[nH]c2ccccc12)NC(=O)CNC(=O)[C@@H]1CCCN1C(=O)[C@H](Cc1ccccc1)NC(=O)[C@H](CO)NC(=O)[C@H](CCC(=O)O)NC(C)=O)C(C)C)C(=O)NCC(=O)N[C@@H](CC(C)C)C(=O)N[C@@H](CC(C)C)C(=O)N[C@@H](CCCNC(=N)N)C(N)=O
[3]
  fold lower inhibitory activity against Compound 229: ~3 fold

B2: Compound 23 (peptide)
peptide: Ac-SPCRVGYTPC-NH2
modifications: disulfide 3-10
SMILES: CC(=O)N[C@@H](CO)C(=O)N1CCC[C@H]1C(=O)N[C@H]1CSSC[C@@H](C(N)=O)NC(=O)[C@@H]2CCCN2C(=O)[C@H]([C@@H](C)O)NC(=O)[C@H](Cc2ccc(O)cc2)NC(=O)CNC(=O)[C@H](C(C)C)NC(=O)[C@H](CCCNC(=N)N)NC1=O
notes: Two Cys
[4]
  Kd: 754 nM
[5]
  Kd: 5740 nM

B3: Compound 2 (peptide)
peptide: Ac-TVFTSWEEYLDWVGSGCWNLKRIGSQGC-NH2
modifications: disulfide 17-28
SMILES: CC[C@H](C)[C@@H]1NC(=O)[C@H](CCCNC(=N)N)NC(=O)[C@H](CCCCN)NC(=O)[C@H](CC(C)C)NC(=O)[C@H](CC(N)=O)NC(=O)[C@H](Cc2c[nH]c3ccccc23)NC(=O)[C@@H](NC(=O)CNC(=O)[C@H](CO)NC(=O)CNC(=O)[C@@H](NC(=O)[C@H](Cc2c[nH]c3ccccc23)NC(=O)[C@H](CC(=O)O)NC(=O)[C@H](CC(C)C)NC(=O)[C@H](Cc2ccc(O)cc2)NC(=O)[C@H](CCC(=O)O)NC(=O)[C@H](CCC(=O)O)NC(=O)[C@H](Cc2c[nH]c3ccccc23)NC(=O)[C@H](CO)NC(=O)[C@@H](NC(=O)[C@H](Cc2ccccc2)NC(=O)[C@@H](NC(=O)[C@@H](NC(C)=O)[C@@H](C)O)C(C)C)[C@@H](C)O)C(C)C)CSSC[C@@H](C(N)=O)NC(=O)CNC(=O)[C@H](CCC(N)=O)NC(=O)[C@H](CO)NC(=O)CNC1=O
notes: Disulfide C17-C28
[6]
  IC50: 110 nM
[4]
  Kd: 1.87 nM
[5]
  Kd: 30.3 nM
[7]
  IC50: 4 nM

## Ac-SGCFI[Hyp′]WNLQRIGLLC-NH2 (disulfide 3-16 (inferred), Has two Cys (positions 3 and 16)) [Compound 242: Ac-SG-CFI(Hyp)WNLQRIGLLC-NH2]
[8]
  IC50: 31000 nM
[9]
  IC50: ≥ 50000 nM

B4: Compound 228 (peptide)
peptide: Ac-SFAFPGWNLV[hArg]IGLLR-NH2
SMILES: CC[C@H](C)[C@H](NC(=O)[C@H](CCCCNC(=N)N)NC(=O)[C@@H](NC(=O)[C@H](CC(C)C)NC(=O)[C@H](CC(N)=O)NC(=O)[C@H](Cc1c[nH]c2ccccc12)NC(=O)CNC(=O)[C@@H]1CCCN1C(=O)[C@H](Cc1ccccc1)NC(=O)[C@H](C)NC(=O)[C@H](Cc1ccccc1)NC(=O)[C@H](CO)NC(C)=O)C(C)C)C(=O)NCC(=O)N[C@@H](CC(C)C)C(=O)N[C@@H](CC(C)C)C(=O)N[C@@H](CCCNC(=N)N)C(N)=O
[10]
  Kd: 2800 nM

## Ac-TVFTSWEEYLDWVGSGCRLPWNLQRIGLPC-NH2 (disulfide 17-30 (inferred), also called Pep2-8p4; Pep2-8_K9gvpep4) [Compound 19]
[11]
  IC50: 2.92 nM
[12]
  IC50: 5.65 nM
[13]
  concentration restoring LDLR levels on HepG2 cells to 50% (EC50): ~500 nM
